Sequences and labels used below:
B1: ADX_6727_A07 (Y44S/K85T) (designed binder)
chain: MGVSDVPRDLEVVAATPTSLLISWDAPAVTVRYYRITYGREVQKYSDLGPLYISQEFTVPGSKSTATISGLKPGVDYTITVYAVTGSGESPASSTPISINYRTEIDKPSQHHHHHH
notes: Full His6-tagged entry
B2: ADX_6727_G10 (Y35S/K85A) (designed binder)
chain: B1 chain with Y45S, S54Y, T95A
notes: Full His6-tagged entry
B3: ADX_6727_H06 (Y44Q/K85T) (designed binder)
chain: B1 chain with S54Q
notes: Full His6-tagged entry
B4: ADX_6727_G04 (Y44S/K85S) (designed binder)
chain: B1 chain with T95S
notes: Full His6-tagged entry
B5: ADX_6727_D03 (L41S) (designed binder)
chain: B1 chain with L51S, S54Y, T95K
notes: Full His6-tagged entry
B6: ADX_6727_F07 (Y44S/K85A) (designed binder)
chain: B1 chain with T95A
notes: Full His6-tagged entry
B7: ADX_6727_B04 (Y35S/K85S) (designed binder)
chain: B1 chain with Y45S, S54Y, T95S
notes: Full His6-tagged entry
B8: ADX_6727_F10 (Y35A/K85T) (designed binder)
chain: B1 chain with Y45A, S54Y
notes: Full His6-tagged entry
B9: ADX_6727_G06 (Y35A/K85S) (designed binder)
chain: B1 chain with Y45A, S54Y, T95S
notes: Full His6-tagged entry
B10: ADX_6727_B09 (L38T/K85T) (designed binder)
chain: B1 chain with L48T, S54Y
notes: Full His6-tagged entry
B11: ADX_6727_G01 (L41A) (designed binder)
chain: B1 chain with L51A, S54Y, T95K
notes: Full His6-tagged entry
B12: ADX_6727_G05 (I43S/K85A) (designed binder)
chain: B1 chain with I53S, S54Y, T95A
notes: Full His6-tagged entry
B13: ADX_6727_F06 (L41A/K85T) (designed binder)
chain: B1 chain with L51A, S54Y
notes: Full His6-tagged entry
B14: ADX_6727_H02 (I43S) (designed binder)
chain: B1 chain with I53S, S54Y, T95K
notes: Full His6-tagged entry
B15: ADX_6727_H08 (L38T/K85T) (designed binder)
chain: B1 chain with L48T, S54Y
notes: Full His6-tagged entry; Printed with the same substitutions as ADX_6727_B09

Positions count from the first letter of the chain named. Numbers in names are those of the source.

T1 sequence (P02768 25-609): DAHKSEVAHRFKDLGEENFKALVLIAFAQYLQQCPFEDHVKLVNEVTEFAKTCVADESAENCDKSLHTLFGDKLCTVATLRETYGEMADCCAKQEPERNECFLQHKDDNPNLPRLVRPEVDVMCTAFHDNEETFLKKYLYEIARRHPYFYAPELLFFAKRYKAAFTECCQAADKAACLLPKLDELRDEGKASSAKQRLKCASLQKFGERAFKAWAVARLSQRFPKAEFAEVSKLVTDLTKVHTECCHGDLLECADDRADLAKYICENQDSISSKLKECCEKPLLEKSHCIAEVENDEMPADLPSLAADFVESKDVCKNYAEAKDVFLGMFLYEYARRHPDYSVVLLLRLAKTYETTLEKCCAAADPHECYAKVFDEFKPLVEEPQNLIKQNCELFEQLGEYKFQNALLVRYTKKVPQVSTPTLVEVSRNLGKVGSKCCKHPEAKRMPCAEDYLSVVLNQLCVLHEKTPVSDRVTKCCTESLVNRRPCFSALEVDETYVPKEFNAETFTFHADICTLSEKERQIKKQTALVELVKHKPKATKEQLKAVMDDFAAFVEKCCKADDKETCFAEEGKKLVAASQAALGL

One experiment concerns the target T1, human serum albumin (HSA), full length (human, UniProt P02768 25-609).
T1 construct: mature; Immobilized on CM5 chip (SPR) or coated on plates (ELISA)
The experiment in a line: SPR off-rate ratio to parent ADX_7016_A01, HSA, 25 C. The procedure: (§1) Measurements were conducted by SPR and ELISA. SPR was conducted as follows. Full length HSA or mouse albumin was immobilized on a Biacore T series CM5 chip at 15 ug/mL in 10 mM acetate buffer (pH 5.0) buffer using standard NHS/EDC coupling, to a surface density of approximately 1000-1100 RU. For off-rate measurements at 25° C., PKE Adnectins were applied as analytes at 500 nM in HBS-P+(0.01 M HEPES pH 7.4, 0.15 M NaCl, 0.005% v/v Surfactant P20) running buffer at a flow rate of 20ul/min for 120 s over the immobilized albumins, followed by 800 s for dissociation. […] Regeneration of the chip surface between cycles was accomplished with two 30 second pulses of 10 mM Glycine, pH 2.0. Kinetic traces of reference-subtracted sensorgrams were fit to a 1:1 binding model for affinity using the Biaevaluation software. Only the dissociation phase was fit for determination of off-rates.
Regarding B1, the “HSA kd/Parent kd” value amounted to 4.8.
Still for that read-out and setting: as for B2, the figure is 3.3; as for B3, 52.7; as for B4, 6.6.
Same read-out and setting: as for B5, the figure is 28.9.
On the same count and under the same terms, as for B6, the figure is 6.5; as for B7, 4.1; as for B8, 4.
With B9, the “HSA kd/Parent kd” value was 3.9.

Another experiment deals with T2, mouse serum albumin (MSA), full length (mouse, UniProt P07724 25-608).
T2 construct: mature; Immobilized on CM5 chip (SPR) or coated on plates (ELISA); also called mouse albumin; murine serum albumin
As to the kind of experiment: SPR off-rate, immobilized MSA, 500 nM Adnectin, 25 C. The procedure: as §1
By koff is commonly meant a measure of how fast the partners let go of each other. B2 registered a koff of 0.00138 s⁻¹.
In turn, B10 had a koff of 0.0262 s⁻¹.
The same measure, in the same setting: as for B11, the figure is 0.00639 s⁻¹; as for B12, 0.0116 s⁻¹; as for B13, 0.0055 s⁻¹.
The same measure, in the same setting: the figure for B7 is 0.00142 s⁻¹; for B14 it is 0.00977 s⁻¹.

The next experiment concerns the target T2, mouse serum albumin (MSA), full length. As to the kind of experiment: SPR off-rate ratio to parent ADX_7016_A01, MSA, 25 C. The procedure: as §1
Consider B2, for which the “MSA kd/Parent kd” value worked out at 3.2.
For B10, the “MSA kd/Parent kd” value came out at 61.2.
In the case of B11, the “MSA kd/Parent kd” value is 14.9.
On the same count and under the same terms, as for B12, the figure is 27.
B13: the “MSA kd/Parent kd” value worked out at 12.8.
Still for that read-out and setting: as for B7, the figure is 3.3; as for B14, 22.8.

In another experiment the target is T1, human serum albumin (HSA), full length. As to the kind of experiment: SPR off-rate ratio to parent ADX_7016_A01, HSA, 25 C. This is another data set of the same source. The procedure:
as §1
Regarding B2, the “HSA kd/Parent kd” value turned out to be 3.3.
The same measure, in the same setting: as for B10, the figure is 34; as for B11, 14; as for B12, 53.
On the same count and under the same terms, as for B13, the figure is 11; as for B7, 4.1.
On the same count and under the same terms, the figure for B14 is 52.

Another experiment has as its target T2, mouse serum albumin (MSA), full length. As to the kind of experiment: SPR off-rate, immobilized MSA, 500 nM Adnectin, 25 C. The source holds these as a separate data set. The procedure: as §1
B1: the koff is 0.00222 s⁻¹.
Take B2: the koff is 0.00138 s⁻¹.
The same measure, in the same setting: the figure for B3 is 0.0143 s⁻¹; for B4 it is 0.00259 s⁻¹.
The same measure, in the same setting: the figure for B5 is 0.0134 s⁻¹; for B10 it is 0.0262 s⁻¹.
Same read-out and setting: the figure for B15 is 0.0284 s⁻¹.
With B6, the koff was 0.00277 s⁻¹.
B7: the koff stood at 0.00142 s⁻¹.
B8 gave a koff of 0.00156 s⁻¹.
Still for that read-out and setting: the figure for B9 is 0.00143 s⁻¹.

The next experiment addresses T1, human serum albumin (HSA), full length. As to the kind of experiment: SPR off-rate, immobilized HSA, 500 nM Adnectin, 25 C. The procedure: as §1
As to B1, the koff is 0.00129 s⁻¹.
Same read-out and setting: the figure for B2 is 0.000892 s⁻¹; for B3 it is 0.0142 s⁻¹.
In the case of B4, the koff was determined as 0.00177 s⁻¹.
Same read-out and setting: the figure for B5 is 0.00777 s⁻¹.
For B10, the koff was found to be 0.00921 s⁻¹.
On the same count and under the same terms, as for B15, the figure is 0.01 s⁻¹.
B6 had a koff of 0.00176 s⁻¹.
Same read-out and setting: as for B7, the figure is 0.0011 s⁻¹; as for B8, 0.00109 s⁻¹.
Still for that read-out and setting: the figure for B9 is 0.00105 s⁻¹.

The next experiment addresses T2, mouse serum albumin (MSA), full length. As to the kind of experiment: SPR off-rate ratio to parent ADX_7016_A01, MSA, 25 C. This is another data set of the same source. The procedure:
as §1
On to B1, for which the “MSA kd/Parent kd” value was 5.2.
On the same count and under the same terms, the figure for B2 is 3.2.
For the molecule B3, the “MSA kd/Parent kd” value worked out at 33.5.
Still for that read-out and setting: the figure for B4 is 6.
As to B5, the “MSA kd/Parent kd” value was 31.3.
As for B6, the “MSA kd/Parent kd” value stood at 6.5.
Take B7: the “MSA kd/Parent kd” value amounted to 3.3.
On the same count and under the same terms, as for B8, the figure is 3.6.
Same read-out and setting: the figure for B9 is 3.3.

For a further experiment the target is unchanged. The experiment in a line: direct binding ELISA, coated MSA, anti-His-HRP. The procedure:
(§2) Direct binding ELISA assays were conducted as follows. Full length human and murine serum albumin at 10ug/ml in PBS were coated on Nunc Maxisorp plates overnight at 4° C. Plates were blocked in casein/PBS buffer. PKE Adnectins were allowed to bind over a 4-point concentration range of 0.032-4 uM for HSA and 0.008-1 uM for MSA. Bound Adnectin was detected by anti-His antibody conjugated with HRP (horseradish peroxidase) diluted 1:1500 in casein/PBS. Plates were developed with TMB substrate and absorbance read at 450 nm. Adnectins were binned as high, medium and low affinity binders based on the observed Ymax of the concentration response curves.
On the technique in general: An ELISA detects its analyte on a solid surface through an enzyme-linked reagent.
With B3, the “MSA DB ELISA YMIN OBS (OD450)” value was 1 OD450.
Same read-out and setting: as for B5, the figure is 1 OD450; as for B10, 1 OD450; as for B15, 1 OD450.

In the next experiment the target is T1, human serum albumin (HSA), full length. The experiment in a line: SPR off-rate, immobilized HSA, 500 nM Adnectin, 25 C. The source holds these as a separate data set. The procedure:
as §1
For B2, the koff was 0.000892 s⁻¹.
On the same count and under the same terms, as for B10, the figure is 0.00921 s⁻¹; as for B11, 0.0037 s⁻¹.
Still for that read-out and setting: as for B12, the figure is 0.0143 s⁻¹.
On the same count and under the same terms, as for B13, the figure is 0.00298 s⁻¹; as for B7, 0.0011 s⁻¹; as for B14, 0.0139 s⁻¹.

Another experiment concerns the target T2, mouse serum albumin (MSA), full length. As to the kind of experiment: direct binding ELISA, coated MSA, anti-His-HRP. Also noted: unit not given here. This is another data set of the same source. The procedure: as §2
Regarding B2, the “MSA DB ELISA (OD450) Ymax obs” value was found to be 100 and the “MSA DB ELISA (OD450) Ymin obs” value was determined as 54.
The corresponding values for B10 are 27 and 1.
For the molecule B11, the “MSA DB ELISA (OD450) Ymax obs” value was 87 and the “MSA DB ELISA (OD450) Ymin obs” value stood at 3.
As to B12, the “MSA DB ELISA (OD450) Ymax obs” value is 32 and the “MSA DB ELISA (OD450) Ymin obs” value was determined as 1.
The matching figures for B13: 91 and 4.
The corresponding values for B7 are 95 and 74.
The matching figures for B14: 39 and 1.

For a further experiment the target is unchanged. The experiment in a line: SPR, immobilized MSA, 500 nM Adnectin, 25 C. The procedure: as §1
Background: Surface plasmon resonance follows binding to a sensor surface in real time, without labels.
B1: the “MSA Binding (RU)” value amounted to 56 RU.
As for B2, the “MSA Binding (RU)” value is 63 RU.
Same read-out and setting: the figure for B3 is 43 RU.
In the case of B4, the “MSA Binding (RU)” value came to 56 RU.
On the same count and under the same terms, as for B5, the figure is 43 RU; as for B6, 62 RU.
On the same count and under the same terms, the figure for B7 is 62 RU; for B8 it is 55 RU; for B9 it is 66 RU.

In the next experiment the target is T1, human serum albumin (HSA), full length. As to the kind of experiment: direct binding ELISA, coated HSA, anti-His-HRP. The arrangement: unit not given here. The procedure: as §2
B2: the “HSA DB ELISA (OD450) Ymax obs” value was 96 and the “HSA DB ELISA (OD450) Ymin obs” value turned out to be 54.
The corresponding values for B10 are 16 and 2.
The matching figures for B11: 79 and 12.
In the case of B12, the “HSA DB ELISA (OD450) Ymax obs” value is 38 and the “HSA DB ELISA (OD450) Ymin obs” value stood at 2.
The matching figures for B13: 90 and 19.
Take B7: the “HSA DB ELISA (OD450) Ymax obs” value amounted to 99 and the “HSA DB ELISA (OD450) Ymin obs” value was 62.
The corresponding values for B14 are 37 and 2.

The target is the same in another experiment. As to the kind of experiment: SPR, immobilized HSA, 500 nM Adnectin, 25 C. The procedure: as §1
Consider B1, for which the “HSA Binding (RU)” value worked out at 28 RU.
On the same count and under the same terms, the figure for B2 is 27 RU; for B3 it is 24 RU.
Consider B4, for which the “HSA Binding (RU)” value was 28 RU.
In the case of B5, the “HSA Binding (RU)” value is 24 RU.
Same read-out and setting: as for B6, the figure is 35 RU; as for B7, 23 RU; as for B8, 22 RU.
On the same count and under the same terms, as for B9, the figure is 26 RU.

For the origin of these results see patent US20180258158A1 (Bristol-Myers Squibb, published 2018).
